Test results from paper PMC10899635, “Q586B2 is a crucial virulence factor during the early stages of Trypanosoma brucei infection that is conserved amongst trypanosomatids” (Nature Communications, 2024).

T1: recombinant Q586B2 protein (Trypanosoma brucei brucei)
T1 chain: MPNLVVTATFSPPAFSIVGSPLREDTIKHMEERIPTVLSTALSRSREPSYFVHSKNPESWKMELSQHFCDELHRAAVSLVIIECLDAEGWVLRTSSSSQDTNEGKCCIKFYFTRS

B1: Nb39 (VHH)
VHH: QVQLQESGGGLVQPGGSLRLSCTASGSIFSGYAMGWYRQAPGKQRELVAGITSGGSTIYAGSVKGRFTISRDNAKNTVYLQMNSLKPEDTAVYYCKNGTYYSARDYWGQGTQVTVSS
notes: nanobody from a llama immunized with recombinant Q586B2; A biotinylated Nb39 served as detecting agent in the sandwich ELISA; also called anti-Q586B2 Nb39; source: E. coli WK6, periplasmic extraction, purified (His-Trap IMAC, Superdex 75); not shown: HA, C-terminal, kept
B2: Nb32 (VHH)
VHH: QVQLQESGGGLVQPGGSLRLSCAASGFTFSAYAMSWVRQAPGKGLEWVSTIDSGGGSTYYADSVKGRFTISRDNAKKTLYLHMNSLKPEDTAVYYCAKRGYSDYARHVWGQGTQVTVSS
B3: Nb34 (VHH)
VHH: QVQLQESGGGLVQPGGSLRLSCAASGFTFSNSPMNWVRQAPGKGLEWVSAINSGGGSTYYADSVKGRFTISRDNAKNTLYLQMNSLKPEDTAVYYCAKGGRTYYSGSYYSWGMDYWGKGTQVTVSS
B4: Nb36 (VHH)
VHH: QVQLQESGGGLVQPGGSLRLSCAASGFAFSFYWMNWVRQAPGKGLEWVSAINSGGGSTYYADSVKGRFTISRDNAKNTLYLQMNSLKPEDTAVYYCAKGIVQRGEYYGMDYWGKGTQVTVSS
B5: Nb41 (VHH)
VHH: QVQLQESGGGLVQAGGSLRLSCAASGRTFSSYAMGWFRQAPGKEREFIALISWIGGSTAYADSVKGRFTISRDNAKNTLYLQMNSLKPEDTAVYYCATDRIGRHRGPGTQVTVSS
B6: Nb53 (VHH)
VHH: QVQLQESGGGSVQAGGSLRLSCSASGYTYSSHCTAWFRQAPGKEREALAAINSRSGTTYYADSVKGRFTISQDNTKNTAYLQMNSLKPEDTATYFCAALSFGCTGPLASLGQGTQVTVSS
B7: Nb58 (VHH)
VHH: QVQLQESGGGLVQPGGSLRLSCAASGRSISSIYAMGWYRQAPGKQRELVARLTSGGSSNYADSVKGRFTITRDNAQNTVYLQMNSLKPEDTAVYYCNAEPSRWWLDDDYWGQGTQVTVSS

Target: T2, native Q586B2 (Trypanosoma brucei brucei AnTat1.1E and …, UniProt Q586B2)
T2 construct: Q586B2 of Trypanosoma brucei brucei, gene Tb927.6.4140, 115 aa; endogenous protein of bloodstream, procyclic and metacyclic forms; also called native Q586B2 protein; source: endogenous, T. b. brucei parasites (AnTat1.1E, 90:13), fixed and permeabilized; also in the culture medium (secretome) of parasites and in serum of infected mice
Test: ELISA; sandwich ELISA: Nb39 coated at 5 µg/ml in PBS; culture medium of in vitro cultured parasites or serum of infected mice (day 6 p.i., diluted 1/2), 2 h at 37 °C; detected with biotinylated Nb39 and streptavidin-HRP
Details: one partner purified

Row | Binder | binding result
1 | B1 | binds

Target: T3, homologous protein in T. cruzi (Trypanosoma cruzi (assayed strain not …, UniProt Q4D6Q6))
T3 construct: protein of T. cruzi homologous to Q586B2, detected by Nb39; also called Q4D6Q6; source: endogenous, T. cruzi parasites, fixed and permeabilized
Test: flow cytometry on cells; 5 µg HA-tagged Nb on 100 µl of 10^7/ml purified, fixed and permeabilized parasites, on ice 30 min; detected with Alexa Fluor 488 labeled anti-HA IgG
Details: one partner purified

Row | Binder | binding result
2 | B1 | binds

Target: T2, native Q586B2
Test: not given
Details: not given

Row | Binder | binding result
3 | B2 | binds
4 | B3 | binds
5 | B4 | binds
6 | B5 | binds
7 | B6 | binds
8 | B7 | binds

Target: T1, recombinant Q586B2 protein
Test: not given
Details: not given

Row | Binder | binding result
9 | B2 | binds
10 | B3 | binds
11 | B4 | binds
12 | B5 | binds
13 | B6 | binds
14 | B7 | binds
